Measurements from paper doi:10.1101/2022.05.20.492803.

Molecular target: GST protein (free GST, cleaved from GST-tagged proteins)
Assay: SAXS

## GST protein (free GST, cleaved from GST-tagged proteins) (enzyme)
  stoichiometry N: 2
